# According to patent EP3741773A1:
# Biological target: cetuximab
# Assay: SPR, immobilized cetuximab IgG (Figure 12)
# Chain of avidin saturated with biotinylated meditope (P02701 25-152): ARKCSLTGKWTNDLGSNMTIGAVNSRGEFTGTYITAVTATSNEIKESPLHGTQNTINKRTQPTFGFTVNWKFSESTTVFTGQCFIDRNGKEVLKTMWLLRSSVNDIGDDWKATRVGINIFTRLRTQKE
substance,measurement,value
avidin saturated with biotinylated meditope (from UniProt P02701 25-152),fold reduction of the off-rate against the monovalent meditope,> 36 fold
